{
  "source": "patent US20210355194A1",
  "about": "(TWIST BIOSCIENCE, published 2021)",
  "binders": {"B1": {"name": "variant 6-45 (Fc fusion)", "VHH": "EVQLVESGGGLVQPGGSLRLSCAASGNMFSINAMGWFRQAPGKEREFVTLISWSSGRTSYADSVKGRFTISADNSKNTAYLQMNSLKPEDTAVYYCASLGYCSGGSCFDYWGQGTLVTVSS"}, "B2": {"name": "variant 6-33 (Fc fusion)", "VHH": "EVQLVESGGGLVQPGGSLRLSCAASGTFQRINHMGWFRQAPGKEREFVATINTGGQPNYADSVKGRFTISADNSKNTAYLQMNSLKPEDTAVYYCASLIAAQDYYFDYWGQGTLVTVSS"}, "B3": {"name": "variant 6-41 (Fc fusion)", "VHH": "EVQLVESGGGLVQPGGSLRLSCAASGFTFSTSWMGWFRQAPGKEREFVASINEYGGRNYADSVKGRFTISADNSKNTAYLQMNSLKPEDTAVYYCAGLHYYYDSSGYNPTEYYGMDVWGQGTLVTVSS"}, "B4": {"name": "variant 6-62 (Fc fusion)", "VHH": "EVQLVESGGGLVQPGGSLRLSCAASGSTFSGNWMGWFRQAPGKEREFVAVISWTGGSTYYADSVKGRFTISADNSKNTAYLQMNSLKPEDTAVYYCATHNSLSGFDYWGQGTLVTVSS"}, "B5": {"name": "variant 6-53 (Fc fusion)", "VHH": "EVQLVESGGGLVQPGGSLRLSCAASGISINTNVMGWFRQAPGKEREFVAAISTGSVTIYADSVKGRFTISADNSKNTAYLQMNSLKPEDTAVYYCARVDDFGYFDLWGQGTLVTVSS"}, "B6": {"name": "variant 6-32 (Fc fusion)", "VHH": "EVQLVESGGGLVQPGGSLRLSCAASGFTLDYYDMGWFRQAPGKEREFVALISWSGGSTYYADSVKGRFTISADNSKNTAYLQMNSLKPEDTAVYYCATDFYGWGTRERDAFDIWGQGTLVTVSS"}, "B7": {"name": "variant 6-52 (Fc fusion)", "VHH": "EVQLVESGGGLVQPGGSLRLSCAASGDTYGSYWMGWFRQAPGKEREVVAAITSGGSTVYADSVKGRFTISADNSKNTAYLQMNSLKPEDTAVYYCARVDSRFDYWGQGTLVTVSS"}, "B8": {"name": "variant 6-55 (Fc fusion)", "VHH": "B7 VHH with D27F, Y29M, G30S, Y32S, V47F, A50R, V58G, R97S, S100G, R101Y", "notes": "VHH-Fc"}, "B9": {"name": "variant 6-47 (Fc fusion)", "VHH": "EVQLVESGGGLVQPGGSLRLSCAASGRTFSMHAMGWFRQAPGKERELVASITYGGNINYADSVKGRFTISADNSKNTAYLQMNSLKPEDTAVYYCAKEGYYDSTGYRTYFQQWGQGTLVTVSS"}, "B10": {"name": "variant 6-57 (Fc fusion)", "VHH": "EVQLVESGGGLVQPGGSLRLSCAASGLTFDDHSMGWFRQAPGKEREFVAAVPLSGNTYYADSVKGRFTISADNSKNTAYLQMNSLKPEDTAVYYCASFSGGPADFDYWGQGTLVTVSS"}, "B11": {"name": "variant 6-66 (Fc fusion)", "VHH": "EVQLVESGGGLVQPGGSLRLSCAASGLTFSLFAMGWFRQAPGKERELVAAISSGGSTDYADSVKGRFTISADNSKNTAYLQMNSLKPEDTAVYYCARGNTKYYYDSSGYSSAFDYWGQGTLVTVSS"}, "B12": {"name": "variant 6-46 (Fc fusion)", "VHH": "EVQLVESGGGLVQPGGSLRLSCAASGLTFSAMGWFRQAPGKEREFVALIRRDGSTIYADSVKGRFTISADNSKNTAYLQMNSLKPEDTAVYYCAALGILFGYDAFDIWGQGTLVTVSS"}, "B13": {"name": "variant 6-44 (Fc fusion)", "VHH": "EVQLVESGGGLVQPGGSLRLSCAASGGTFGVYHMGWFRQAPGKEREFIGRITWTDGSTYYADSVKGRFTISADNSKNTAYLQMNSLKPEDTAVYYCFGLLEVYDMTFDYWGQGTLVTVSS"}, "B14": {"name": "variant 6-58 (Fc fusion)", "VHH": "EVQLVESGGGLVQPGGSLRLSCAASGRAVSTYAMGWFRQAPGKEREFVAAISGSENVTSYADSVKGRFTISADNSKNTAYLQMNSLKPEDTAVYYCLSVTGDTEDYGVFDTWGQGTLVTVSS"}, "B15": {"name": "variant 6-31 (Fc fusion)", "VHH": "EVQLVESGGGLVQPGGSLRLSCAASGDTFSANRMGWFRQAPGKEREFVASITWSSANTYYADSVKGRFTISADNSKNTAYLQMNSLKPEDTAVYYCATFNWNDEGFDFWGQGTLVTVSS"}, "B16": {"name": "variant 6-49 (Fc fusion)", "VHH": "EVQLVESGGGLVQPGGSLRLSCAASGSTVLINAMGWFRQAPGKEREFVAAISWSPGRTDYADSVKGRFTISADNSKNTAYLQMNSLKPEDTAVYYCARDCSGGSCYSGDYWGQGTLVTVSS"}, "B17": {"name": "variant 6-51 (Fc fusion)", "VHH": "EVQLVESGGGLVQPGGSLRLSCAASGYTYSSYVMGWFRQAPGKEREFVAAISRFGSTYYADSVKGRFTISADNSKNTAYLQMNSLKPEDTAVYYCARDSGEHFWDSGYIDHWGQGTLVTVSS"}, "B18": {"name": "variant 6-38 (Fc fusion)", "VHH": "EVQLVESGGGLVQPGGSLRLSCAASGNTFSGGFMGWFRQAPGKEREFVAVISSLSSKSYADSVKGRFTISADNSKNTAYLQMNSLKPEDTAVYYCAKVDSGYDYWGQGTLVTVSS"}, "B19": {"name": "variant 6-39 (Fc fusion)", "VHH": "EVQLVESGGGLVQPGGSLRLSCAASGFTFSPSWMGWFRQAPGKEREFVAAISWSGGSTAYADSVKGRFTISADNSKNTAYLQMNSLKPEDTAVYYCHGLGEGDPYGDYEGYFDLWGQGTLVTVSS"}, "B20": {"name": "variant 6-50 (Fc fusion)", "VHH": "EVQLVESGGGLVQPGGSLRLSCAASGFSFDRWAMGWFRQAPGKEREWVASLATGGNTNYADSVKGRFTISADNSKNTAYLQMNSLKPEDTAVYYCARVTNYDAFDIWGQGTLVTVSS"}, "B21": {"name": "variant 6-37 (Fc fusion)", "VHH": "EVQLVESGGGLVQPGGSLRLSCAASGHTFSTSWMGWFRQAPGKEREFVATINSLGGTNYADSVKGRFTISADNSKNTAYLQMNSLKPEDTAVYYCARVSSGDYGMDVWGQGTLVTVSS"}, "B22": {"name": "variant 6-24 (Fc fusion)", "VHH": "EVQLVESGGGLVQPGGSLRLSCAASGFTLDYYAMGWFRQAPGKEREFVAAINWSGDNTHYADSVKGRFTISADNSKNTAYLQMNSLKPEDTAVYYCARAPFYCTTTKCQDNYYYMDVWGQGTLVTVSS"}, "B23": {"name": "variant 6-54 (Fc fusion)", "VHH": "EVQLVESGGGLVQPGGSLRLSCAASGFEFENHWMGWFRQAPGKEREYVAHITAGGLSNYADSVKGRFTISADNSKNTAYLQMNSLKPEDTAVYYCGRHWGIYDSSGFSSFDYWGQGTLVTVSS"}, "B24": {"name": "variant 6-36 (Fc fusion)", "VHH": "EVQLVESGGGLVQPGGSLRLSCAASGFDFSVSWMGWFRQAPGKEREFVTAITWSGDSTNYADSVKGRFTISADNSKNTAYLQMNSLKPEDTAVYYCASLLHTGPSGGNYFDYWGQGTLVTVSS"}, "B25": {"name": "variant 6-60 (Fc fusion)", "VHH": "EVQLVESGGGLVQPGGSLRLSCAASGDTYGSYWMGWFRQAPGKEREFVATISQSGAATAYADSVKGRFTISADNSKNTAYLQMNSLKPEDTAVYYCAGLLRYSGTYYDAFDVWGQGTLVTVSS", "notes": "VHH-Fc"}, "B26": {"name": "variant 6-56 (Fc fusion)", "VHH": "EVQLVESGGGLVQPGGSLRLSCAASGNIFRSNMGWFRQAPGKEREFVAGITWNGDTTYYADSVKGRFTISADNSKNTAYLQMNSLKPEDTAVYYCARALGVTYQFDYWGQGTLVTVSS"}, "B27": {"name": "variant 6-25 (Fc fusion)", "VHH": "EVQLVESGGGLVQPGGSLRLSCAASGLTFGTYTMGWFRQAPGKEREFVAAISRFGSTYYADSVKGRFTISADNSKNTAYLQMNSLKPEDTAVYYCARGGDYDFWSVDYMDVWGQGTLVTVSS"}, "B28": {"name": "variant 6-28 (Fc fusion)", "VHH": "EVQLVESGGGLVQPGGSLRLSCAASGDTYGSYWMGWFRQAPGKEREFVATITSDDRTNYADSVKGRFTISADNSKNTAYLQMNSLKPEDTAVYYCARVTSSLSGMDVWGQGTLVTVSS"}, "B29": {"name": "variant 6-42 (Fc fusion)", "VHH": "EVQLVESGGGLVQPGGSLRLSCAASGDTYGSYWMGWFRQAPGKEREFVAVITSGGSTNYADSVKGRFTISADNSKNTAYLQMNSLKPEDTAVYYCTHVQNSYYYAMDVWGQGTLVTVSS"}, "B30": {"name": "variant 6-34 (Fc fusion)", "VHH": "EVQLVESGGGLVQPGGSLRLSCAASGSAFRSNAMGWFRQAPGKEREFVAHISWSSKSTYYADSVKGRFTISADNSKNTAYLQMNSLKPEDTAVYYCATYCSSTSCFDYWGQGTLVTVSS"}, "B31": {"name": "variant 6-40 (Fc fusion)", "VHH": "EVQLVESGGGLVQPGGSLRLSCAASGFTFSDYWMGWFRQAPGKERELVARVWWNGGSAYYADSVKGRFTISADNSKNTAYLQMNSLKPEDTAVYYCAREVLRQQVVLDYWGQGTLVTVSS"}, "B32": {"name": "variant 6-26 (Fc fusion)", "VHH": "EVQLVESGGGLVQPGGSLRLSCAASGDTFSTSWMGWFRQAPGKEREFVATINTGGGTNYADSVKGRFTISADNSKNTAYLQMNSLKPEDTAVYYCARVTTSFDYWGQGTLVTVSS", "notes": "VHH-Fc"}, "B33": {"name": "variant 6-77 (Fc fusion)", "VHH": "EVQLVESGGGLVQPGGSLRLSCAASGFTFDRSWMGWFRQAPGKEREFVAAVTEGGTTSYADSVKGRFTISADNSKNTAYLQMNSLKPEDTAVYYCARADYDFDYWGQGTLVTVSS"}, "B34": {"name": "variant 6-30 (Fc fusion)", "VHH": "EVQLVESGGGLVQPGGSLRLSCAASGFAFGDSWMGWFRQAPGKEREFVATINWSGVTAYADSVKGRFTISADNSKNTAYLQMNSLKPEDTAVYYCARADGYFDYWGQGTLVTVSS"}, "B35": {"name": "variant 6-43 (Fc fusion)", "VHH": "EVQLVESGGGLVQPGGSLRLSCAASGRTFSSYAMMGWFRQAPGKEREFVASVNWDASQINYADSVKGRFTISADNSKNTAYLQMNSLKPEDTAVYYCTTLGAVYFDSSGYHDYFDYWGQGTLVTVSS"}},
  "note": "Where a chain is given by its changes, count along the chain named.",
  "data": [
    {"target": "CV S-protein construct 6 trimer TP31001F (SARS-CoV-2, UniProt P0DTC2 14-1208)", "assay": "SPR", "units": {"Kd": "nM"}, "values": [
      {"binder": "B1", "Kd": 1.3},
      {"binder": "B2", "Kd": 0.2},
      {"binder": "B3", "Kd": 1},
      {"binder": "B4", "Kd": 198},
      {"binder": "B5", "Kd": 24.2},
      {"binder": "B6", "Kd": 0.1},
      {"binder": "B7", "Kd": 1.1},
      {"binder": "B8", "Kd": 0.3},
      {"binder": "B9", "Kd": 5.6},
      {"binder": "B10", "Kd": 0.7},
      {"binder": "B11", "Kd": 7.7},
      {"binder": "B12", "Kd": 1.9},
      {"binder": "B13", "Kd": 0.9},
      {"binder": "B14", "Kd": 1},
      {"binder": "B15", "Kd": 20.7},
      {"binder": "B16", "Kd": 2.2},
      {"binder": "B17", "Kd": 0.8},
      {"binder": "B18", "Kd": 0.5},
      {"binder": "B19", "Kd": 0.1},
      {"binder": "B20", "Kd": 67.6},
      {"binder": "B21", "Kd": 0.7},
      {"binder": "B22", "Kd": 0.2},
      {"binder": "B23", "Kd": 0.9},
      {"binder": "B24", "Kd": 0.8},
      {"binder": "B25", "Kd": 0.1},
      {"binder": "B26", "Kd": 14.9},
      {"binder": "B27", "Kd": 5.8},
      {"binder": "B28", "Kd": 0.4},
      {"binder": "B29", "Kd": 7.8},
      {"binder": "B30", "Kd": 0.7},
      {"binder": "B31", "Kd": 1.9},
      {"binder": "B32", "Kd": 0.1},
      {"binder": "B33", "Kd": 3.5},
      {"binder": "B34", "Kd": 0.1},
      {"binder": "B35", "Kd": 0.7}
    ]}
  ]
}
